Molecular target: caleosin 2 (CLO2), Cub fusion (A. thaliana, UniProt Q9FLN9 1-243)
Test: two-hybrid

Sequence of caleosin 2 (CLO2), Cub fusion (Q9FLN9 whole entry, the tested form may be a part): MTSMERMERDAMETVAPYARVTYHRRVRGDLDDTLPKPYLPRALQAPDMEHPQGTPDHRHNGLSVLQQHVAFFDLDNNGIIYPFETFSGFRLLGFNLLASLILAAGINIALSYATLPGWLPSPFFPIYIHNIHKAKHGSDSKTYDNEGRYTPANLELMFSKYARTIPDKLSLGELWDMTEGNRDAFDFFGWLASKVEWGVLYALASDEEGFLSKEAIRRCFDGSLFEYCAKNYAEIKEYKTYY

- fold weaker β-galactosidase activity (against CLO1, CLO3 and OLE1): 2 fold
B1: autophagy-related protein 8b (ATG8b), NubG fusion (natural protein, A. thaliana, UniProt Q9XEB5 1-117, looked up)
chain: MEKNSFKLSNPLEMRMAESTRIRAKYPERVPVIVEKAGQSDVPDIDKKKYLVPADLTIGQFVYVVRKRIKLGAEKAIFVFVKNTLPPTAALMSAIYEEHKDEDGFLYMTYSGENTFG
